Experimental data from PMC11101322, “VvWRKY5 positively regulates wounding-induced anthocyanin accumulation in grape by interplaying with VvMYBA1 and promoting jasmonic acid biosynthesis”.

B1: VvLOX mutant probe (dsDNA)
DNA 1: ACCAGCCAATGGAAAATAGCGAAAATACCTAGTCTATTCC
DNA 2: GGAATAGACTAGGTATTTTCGCTATTTTCCATTGGCTGGT
B2: VvUFGT probe (dsDNA)
DNA 1: GGATGACAACCCCCATGCAGTTGCCACTCTCACAACCCCC
DNA 2: GGGGGTTGTGAGAGTGGCAACTGCATGGGGGTTGTCATCC

How the values were obtained:
VvWRKY5-HIS = target: T1, VvWRKY5-HIS (Vitis vinifera, UniProt F6HUN4 7-329); test: EMSA; LightShift Chemiluminescent EMSA system; buffer, salt, pH and temperature not stated; conditions: protein: recombinant, tags: His (pET-32a fusion), blunt
T1 sequence: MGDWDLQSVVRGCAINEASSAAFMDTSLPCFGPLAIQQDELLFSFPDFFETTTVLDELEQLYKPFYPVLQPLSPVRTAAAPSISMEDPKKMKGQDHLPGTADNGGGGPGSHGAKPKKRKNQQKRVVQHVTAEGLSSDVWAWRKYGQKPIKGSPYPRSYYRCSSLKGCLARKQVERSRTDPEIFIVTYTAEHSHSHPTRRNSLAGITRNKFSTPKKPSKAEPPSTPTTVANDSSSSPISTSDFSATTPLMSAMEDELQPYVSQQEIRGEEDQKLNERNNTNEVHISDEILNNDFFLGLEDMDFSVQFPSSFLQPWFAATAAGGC

VvMYBA1-HIS = target: T2, VvMYBA1-HIS (Vitis vinifera, UniProt Q6L9M9 1-250); test: as above; conditions: protein: recombinant; tags: His (pET-32a fusion); label: biotin; blunt
T2 sequence: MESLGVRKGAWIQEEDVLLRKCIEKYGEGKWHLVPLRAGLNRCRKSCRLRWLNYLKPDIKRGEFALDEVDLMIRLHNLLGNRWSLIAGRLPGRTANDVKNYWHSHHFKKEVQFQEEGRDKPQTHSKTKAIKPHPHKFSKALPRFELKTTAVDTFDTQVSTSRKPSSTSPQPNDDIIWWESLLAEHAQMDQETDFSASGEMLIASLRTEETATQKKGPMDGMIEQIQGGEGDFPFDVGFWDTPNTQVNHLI

| Binder | binding result (VvWRKY5-HIS) | binding result (VvWRKY5-HIS; label: biotin) | binding result (VvMYBA1-HIS) |
| --- | --- | --- | --- |
| B1 | no binding |  |  |
| B2 |  | no binding | binds |
